{"source": "paper PMC10616597", "origin": "cited, not measured here", "target": "TLR4 (Homo sapiens) (UniProt O00206)", "sequence (O00206 24-839)": "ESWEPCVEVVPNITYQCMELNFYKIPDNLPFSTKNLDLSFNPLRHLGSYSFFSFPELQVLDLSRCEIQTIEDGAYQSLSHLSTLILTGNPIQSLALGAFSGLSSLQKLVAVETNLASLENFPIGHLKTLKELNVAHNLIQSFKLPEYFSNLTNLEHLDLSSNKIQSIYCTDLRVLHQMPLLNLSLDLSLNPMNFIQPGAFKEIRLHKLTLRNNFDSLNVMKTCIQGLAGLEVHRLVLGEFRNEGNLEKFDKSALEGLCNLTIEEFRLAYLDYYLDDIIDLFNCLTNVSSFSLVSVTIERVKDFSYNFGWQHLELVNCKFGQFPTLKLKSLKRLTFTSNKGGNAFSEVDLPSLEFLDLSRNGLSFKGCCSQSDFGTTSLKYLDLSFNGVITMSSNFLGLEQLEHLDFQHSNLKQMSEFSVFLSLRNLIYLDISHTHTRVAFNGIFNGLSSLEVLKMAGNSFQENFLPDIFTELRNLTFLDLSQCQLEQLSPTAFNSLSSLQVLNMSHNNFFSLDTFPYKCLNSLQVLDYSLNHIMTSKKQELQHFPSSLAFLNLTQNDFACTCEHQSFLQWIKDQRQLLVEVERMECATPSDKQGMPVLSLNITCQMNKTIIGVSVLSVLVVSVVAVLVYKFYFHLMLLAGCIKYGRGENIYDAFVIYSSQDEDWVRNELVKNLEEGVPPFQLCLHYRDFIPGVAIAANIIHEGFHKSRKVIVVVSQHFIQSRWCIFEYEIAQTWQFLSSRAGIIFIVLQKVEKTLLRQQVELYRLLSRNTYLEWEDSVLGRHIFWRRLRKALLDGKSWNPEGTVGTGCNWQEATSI"}
{"substance": "eNAMPT (from UniProt P43490)", "values": [{"measurement": "Kd", "result": 18, "unit": "nM"}]}
